Molecular target: T1, His6-tagged STAT3, bacterially derived (UniProt P40763 1-770)
T1 construct: also called His6-STAT3; His6-St3; source: E. coli BL21(DE3), purified (Ni-NTA, eluted with imidazole)
Assay: pull-down
Conditions: both partners purified

T1 sequence (P40763 whole entry): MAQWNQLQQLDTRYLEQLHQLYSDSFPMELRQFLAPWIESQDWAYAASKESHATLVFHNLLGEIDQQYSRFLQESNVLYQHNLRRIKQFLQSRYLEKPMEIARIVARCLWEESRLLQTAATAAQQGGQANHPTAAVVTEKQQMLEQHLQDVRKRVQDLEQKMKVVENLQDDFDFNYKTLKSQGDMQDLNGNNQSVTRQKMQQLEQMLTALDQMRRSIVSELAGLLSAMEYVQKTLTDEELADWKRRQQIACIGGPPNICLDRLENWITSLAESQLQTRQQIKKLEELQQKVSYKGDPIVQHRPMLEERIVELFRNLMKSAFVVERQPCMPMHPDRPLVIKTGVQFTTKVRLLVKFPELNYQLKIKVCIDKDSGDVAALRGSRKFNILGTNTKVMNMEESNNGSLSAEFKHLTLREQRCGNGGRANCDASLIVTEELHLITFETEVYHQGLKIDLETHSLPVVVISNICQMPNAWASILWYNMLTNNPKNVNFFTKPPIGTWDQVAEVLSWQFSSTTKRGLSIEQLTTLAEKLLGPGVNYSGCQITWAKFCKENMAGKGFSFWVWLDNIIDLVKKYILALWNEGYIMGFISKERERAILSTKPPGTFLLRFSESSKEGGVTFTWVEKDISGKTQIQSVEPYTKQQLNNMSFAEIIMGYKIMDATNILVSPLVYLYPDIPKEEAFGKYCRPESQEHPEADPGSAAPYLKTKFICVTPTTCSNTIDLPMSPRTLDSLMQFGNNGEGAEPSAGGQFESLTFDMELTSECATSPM

B1: GST-tagged vIRF-1, bacterially derived (natural protein)
chain: MDPGQRPNPFGAPGAIPKKPCLSQGSPGTSGSGAPCDEPSRSESPGEGPSGTGGSAAAGDITRQAVVAAITEWSRTRQLRISTGASEGKASIKDWIVCQVNSGKFPGVEWEDEERTRFRIPVTPLADPCFEWRRDGELGVVYIRERGNMPVDASFKGTRGRRRMLAALRRTRGLQEIGKGISQDGHHFLVFRVRKPEEEQCVECGVVAGAVHDFNNMARLLQEGFFSPGQCLPGEIVTPVPSCTTAEGQEAVIDWGRLFIRMYYNGEQVHELLTTSQSGCRISSALRRDPAVHYCAVGSPGQVWLPNVPNLACEIAKRELCDTLDACAKGILLTSSCNGIFCVCYHNGPVHFIGNTVPPDSGPLLLPQGKPTRIFNPNTFLVGLANSPLPAPSHVTCPLVKLWLGKPVAVGKLEPHAPSPRDFAARCSNFSDACVVLEIMPKPLWDAMQ
notes: also called GST-fused vIRF-1; vIRF-1-GST
  binding result: binds
